Data on ten molecules can be found in patent US20050048614A1, “Biosynthetic oncolytic molecules and uses therefor” (Children's Medical Center Corporation, priority 2000, published 2005).

Substitutions are numbered along the chain they refer to.

The test system of series [1] is metastatic tumor cell line. The series can be described thus: apoptosis assay, flow cytometric analysis of propidium iodide uptake. Type of series: cell-based. The note with it: apoptosis assays. The source says:
A first generation osteopontin-derived biosynthetic molecule, oncolysin N, was engineered based on the isolation of a domain of osteopontin sufficient to impart pro-apoptotic activity when isolated away from the naturally-occurring osteopontin polypeptide. In particular, the oncolysin N molecule was designed to include the following domains: (1) a signal sequence (i.e., signal peptide), derived in this instance from the native osteopontin amino acid sequence (i.e., amino acids 1-16 of the human osteopontin-B amino acid sequence set forth as SEQ ID NO:1); (2) a golgi processing domain derived from the native osteopontin amino acid sequence (i.e., amino acids 17-30 of the human osteopontin-B amino acid sequence set forth as SEQ ID NO:1); (3) a pro-apoptotic domain comprising contiguous amino acid residues of human osteopontin-B sufficient to induce apoptosis (i.e., amino acids 147-170 of the human osteopontin-B amino acid sequence set forth as SEQ ID NO:1) yet lacking additional osteopontin-B sequences which are unnecessary for apoptotic activity, or alternatively decrease pro-apoptotic activity, of the biosynthetic molecule; and (4) two linker domains, a first linker domain operably linking the signal sequence to the golgi processing domain, and a second linker domain operably linking the golgi processing domain to the pro-apoptotic domain. The signal sequence and golgi processing domain optimize synthesis, processing through the golgi and secretion of the biosynthetic oncolysin N molecule. […]
Cells are grown in culture and treated with varying doses of exogenous oncolysin N. Apoptosis is determined by flow cytometric analysis according to the uptake of propidium iodide. […] DNA cleavage in apoptotic cells is assessed by flow cytometric analysis, as cells containing hypodiploid nuclei bind less propidium iodide than intact nuclei.
Cellular apoptosis can also be determined using standard criteria in the art such as nuclear condensation, chromatin fragmentation, and viability as assessed by Trypan blue exclusion. […]
On the technique in general: Flow cytometry measures light scatter and fluorescence of single cells or particles in a stream.

The subject of another series is microtubules. Kind of series: effect on microtubules in treated cells. The series is classed as cell-based. The source says:
Based on a detailed understanding of the functional domains of osteopontin and an understanding of the role this multifunctional cytokine plays in the regulation of cellular apoptosis, biosynthetic molecules which mimic distinct functions of osteopontin are provided for use in a variety of therapeutic applications, in particular, in the treatment of cancer and inflammatory conditions such as arthritis. In particular, the biosynthetic molecules are useful in the elimination of abnormal or unwanted cells that express at least an integrin receptor and/or that co-express both an integrin and a CD44 receptor. Many of the biosynthetic molecules/peptides disclosed herein are believed to uncouple integrin signaling form CD 44 signaling, resulting in the stabilization of microtubules by down stream activation of rhoB. […] Cells treated with these molecules organize the arrays of disorganized microtubules into parallel bundles and freeze the normal, microtubular, mitotic bundle. As a result, the treated cells form several more asters at various locations with the cell, serving to further strengthen the cell's structure and preventing cell separation.
Many of the biosynthetic molecules/peptides disclosed herein are believed to uncouple integrin signaling form CD 44 signaling. […] Cells treated with these molecules organize the arrays of disorganized into parallel bundles and freeze the normal, microtubular, mitotic bundle. As a result, the treated cells form several more asters at various locations with the cell, serving to further strengthen the cell's structure and preventing cell separation.

The subject of the next series is MDA-MB-231 cells. Kind of series: FragEL apoptotic assay in cells infected with pRetro-oncolysin and induced with Doxycycline. The series is classed as cell-based, human. Conditions: 48 h after infection, induced with 3 ug Doxycycline for 6 hours; versus uninduced cells. As to the method: 50,000 Breast tumor cells were infected with approximately 500,000 viral particles in DME+10% FBS containing 4 μg/ml polybrene. After 48 h., the MDA-MB-231 cells were induced with 3 ug of Doxycycline for 6 hours in defined media. Apoptosis was assessed using the FragEL™ apoptotic assay. Uninduced cells are viable and labeled blue when viewed at 10× magnification under a light microscope. […] Each experiment was performed in duplicates and repeated 3 times.

Another series relates to MDA-MB-231 tumor cells. Kind of series: tubulin staining by indirect fluorescent immunochemistry. The note with it: induced with 3 μg/ml Doxycycline, six hours; versus uninduced infected cells. The series is classed as cell-based, human. The method, then: Oncolysin 1-infected MDA-MB-231 tumor cells were induced with 3 μg/ml of Doxycycline. After six hours, the cells were fixed in 10% formaldehyde then stained for tubulin using indirect fluorescent immunochemistry.

The test system of series [2] is MDA-MB-231 Human Breast Cancer Cell. Kind of series: nuclear stain (H and E) of infected cells. The series is classed as cell-based. The note with it: with or without doxycyclin induction for six hours. The source says:
Infected cells were stained with H and E without induction with doxycyclin or after induction for six hours.

Another series has as its system SHP-1. Kind of series: signal transduction pathway in infected cells (FIG. 3), SHP-1. The series is classed as cell-based. The note with it: infected cells compared to control cells. From the text:
(§1) FIG. 3 depicts an alteration in the signal transduction pathway in cells infected with oncolysin 1/Sophin C as compared to control cells.

A further series has as its system PI-3 kinase. The series can be described thus: signal transduction pathway in infected cells (FIG. 3), PI-3 kinase. The note with it: infected cells compared to control cells. Type of series: cell-based.
Excerpt: as §1

Another series concerns MDA-MB-231 xenografts. The series can be described thus: MDA-MB-231 xenograft tumor growth in nude mice (FIG. 4). The series is classed as in vivo. Conditions: for tumor volume: compared to controls. The method, then: To evaluate the effectiveness of oncolysin 1/Sophin C against primary tumor growth and metastasis, 1×10^7 MDA-MB-231 breast cancer cells were injected subcutaneously into the left flank of nude mice. After six weeks the resulting tumors were aseptically dissected out, minced and 1 mm-tumor pieces were transplanted into the right flank of nude mice using a trocar needle. One weeks later, when tumors measured approximately 10 mm, mice were assigned to different experimental groups. One set of 24 animals bearing MDA-MB-231 xenografts were divided into 3 groups that received the following treatments: A first group of 8 animals were injected with pRetro-oncolysin (1×10^6 viral particles). After one day and weekly thereafter (for 3 weeks) these animals received a weekly injection of the inducing agent Doxycyxlin (1 mg/kg) through the peritoneal cavity. A second group of 8 animals received a weekly injection of Doxycyclin (uninfected tumors) and a third group received a weekly injection of oncolysin protein (10 μg/kg). In another set of experiments, the pRetro-oncolysin was injected into the marrow stroma of tumor bearing mice. After, day one, the animals were treated as above, with weekly injection of Doxycyclin. Tumors were measured once every two days with microcalipers, and tumor volume was calculated as length×width×height×0.5236. Body weight was measured on the day of the injection, 4 days later and weekly thereafter. Four days after the first injection, blood samples were collected from the tail vein using the Unopette™ micro-collection kit. Total leukocyte and platelet counts were determined manually using a hemocytometer. Blood smears stained with the Hema3™ kit were used for assessing absolute numbers of granulocytes and lymphocytes. Treatment-related toxicity was evaluated based on the differences in body weight, liver and kidney marker enzymes, and hematological parameters between treatment groups. 20 weeks after treatment, animals were killed by decapitation under anesthesia. […] Liver, heart, uterus, ovaries, lungs spinal cord and all long bones were evaluated histologically.

Series [3] relates to breast, prostate and uterine tumors. The series can be described thus: tumor growth in breast, prostate and uterine tumor models, dose response (FIG. 5). The series is classed as in vivo. The method, then: The effect of Sophin C on tumor growth was evaluated for three tumor types, breast, prostate and uterine.

For “osteopontin-B: native human osteopontin-B, a preferred splice variant of the human osteopontin gene [reference compound]”, the “apoptotic activity (induction of apoptosis)” value (“apoptotic activity” for short) in [1] is “no apoptotic activity”.

For “GIPVKQADSGSSEEKGGGPPTPVVPTVDTYDGRGDSVVYGLRKKKAARG RRAARGRR (GIPVKQADSGSSEEKGGGPPTPVVPTVDTYDGRGDSVVYGLRKKKAARGRRAARGRR) [SEQ ID NO:10]”, in the series with microtubules, the capping of microtubules result is given as “inhibit the capping of microtubules” and the polymerization of microtubules entry is “induces their unidirectional polymerization”.

Consider “PGIPVKQADSGSSEEKGGGPGTPVVPTVDTYDGRGDSVVYGLRKKKAAR GRRAARGRR (PGIPVKQADSGSSEEKGGGPGTPVVPTVDTYDGRGDSVVYGLRKKKAARGRRAARGRR) [SEQ ID NO:14]”, for which, in the series with microtubules, the capping of microtubules entry is on record as “inhibit the capping of microtubules” and the polymerization of microtubules entry is “induces their unidirectional polymerization”.

On to “PYAGRGDSVVYGLKKKNNQKAEPLIGRKKTR [SEQ ID NO:16]”, for which, in the series on microtubules, the capping of microtubules entry is recorded as “inhibit the capping of microtubules” and the polymerization of microtubules result is “induces their unidirectional polymerization”.

As for “PGIPVKQADSGSSEEKGGGPGTPVVPTVDTYDGRGDSVVYGLRKKKAARGRRAARGRR (PGIPVKQADSGSSEEKGGGPGTPVVPTVDTYDGRGDSVVYGLRKKKAARGRRAARGRR) [SEQ ID NO:15]”, in the series on microtubules, the capping of microtubules entry was “inhibit the capping of microtubules” and the polymerization of microtubules entry was “induces their unidirectional polymerization”.

B1: … VYGLRKKKAARGRRAARGRR (protein)
chain: HHGHHGGHHHPGIPVKQADSGSSEEKGGGPPTPVVPTVDTYDGRGDSVVYGLRKKKAARGRRAARGRR
modifications: His tag
Turning to B1, in the series on microtubules, the capping of microtubules entry is reported as “inhibit the capping of microtubules” and the polymerization of microtubules entry is recorded as “induces their unidirectional polymerization”.

B2: MRIAVICFCLLGITCAGGGPGIPVKQADSGSSEEKGGGPGTPVVPTVDTY DGRGDSVVYGLRSKKAARGRRAARGRR (protein)
chain: MRIAVICFCLLGITCAGGGPGIPVKQADSGSSEEKGGGPGTPVVPTVDTYDGRGDSVVYGLRSKKAARGRRAARGRR
In the case of B2, in the series on microtubules, the capping of microtubules result was “inhibit the capping of microtubules” and the polymerization of microtubules result is “induces their unidirectional polymerization”.

B3: MRIAVICFCLLGITCAGGGPGIPVKQADSGSSEEKGGGPGTPVVPTVDTY DGRGDSVVYGLRKKKAARGRRAARGRR (protein)
chain: B2 chain with S63K
Regarding B3, in the series with microtubules, the capping of microtubules entry is recorded as “inhibit the capping of microtubules” and the polymerization of microtubules entry is reported as “induces their unidirectional polymerization”.

B4: oncolysin 1/Sophin C: second generation molecule: oncolysin N with synthetic heparin binding domain (RSKK and RGRR) at the C terminus; 71mer (protein)
chain: MRIAVICFCLLGITCAGGGPGIPVKQADSGSSEEKGGGPGTPVVPTVDTYDGRGDSVVYGLRSKKAARGRR
With B4, the “apoptotic activity” value in [1] was “dramatically increase apoptotic activity”. Further, the “apoptosis (FragEL staining)” value in the series with MDA-MB-231 cells is reported as “undergo apoptosis”. Besides, the tubulin staining entry in the series with MDA-MB-231 tumor cells was “stabilized tubulin around multi-nuclei”. Further, the multinucleation entry in series [2] is reported as “Multinucleation was observed only in induced cells”. Besides, the SHP-1 protein expression result with SHP-1 is recorded as “decreased SHP-1 protein expression”. Moreover, the PI-3 kinase expression result in the series on PI-3 kinase is recorded as “increased PI-3 kinase expression”. The “health of treated mice” value in the series with MDA-MB-231 xenografts (all treated mice, after approximately 6 months, control animals died or were sacrificed) was “remained healthy”. In addition, the tumor volume result in the series on MDA-MB-231 xenografts (group 1: pRetro-oncolysin 1×10^6 viral particles plus weekly Doxycyclin 1 mg/kg) is on record as “striking reduction in tumor volume”; in the series on MDA-MB-231 xenografts (group 3: weekly injection of oncolysin protein 10 μg/kg), “striking reduction in tumor volume”; in series [3] (50 μg/kg protein) it was “reduction in tumor volume”; in series [3] (500 μg/kg protein), “reduction in tumor volume”. For the same molecule, in the series on microtubules, the capping of microtubules entry is on record as “inhibit the capping of microtubules”. For the same molecule, in the series with microtubules, the polymerization of microtubules result is reported as “induces their unidirectional polymerization”.

B5: Oncolysin 2: second generation molecule: oncolysin N with a synthetic collagen binding domain at the C terminus (protein)
chain: MRIAVICFCLLGITCAGGGPGIPVKQADSGSSEEKGGGPGTPVVPTVDTYDGRGDSVVYGLRSKPAGAAGGPAGPAGPAGPAGPAGP
In the case of B5, the “apoptotic activity” value in series [1] was “more effective at promoting apoptosis than oncolysin N”.
